Results as given in patent US20240309093A1 (MINGHUI PHARMACEUTICAL HANGZHOU, published 2024).
Numbering of substitutions follows the chain as printed. Like-named read-outs stand apart in the source and are kept apart here. Values belong to the binder of their own block, whether it stands above or below them.

Columns and labels:
[1] = target: PD1 on Jurkat-NFAT-PD1 transgene cells; test: cell-based or functional assay
[2] = target: T1, recombinant human PD-1-his protein (human, UniProt Q15116 25-167); test: ELISA; PD-1-his coated 2 µg/mL, anti-human IgG Fc-HRP
T1 construct: also called hPD-1-his; not shown: his tag
Experimental: (§1) The plates were washed three times with PBST. 5% PBS-Milk was added and incubated at room temperature for 2 h. The plates were washed three times with PBST. All the nanobody-Fc fusion proteins were subject to 3-fold gradient dilutions with an initial concentration of 10 μg/mL, added into each well at 30 μL/well, and incubated at room temperature for 1 hr. The plates were washed three times with PBST. The secondary antibody Goat-Anti-Human-IgG-Fc-HRP was diluted at 1:8000, added into each well at 30 μL/well, and incubated at room temperature for 50 min. The plates were washed nine times with PBST. TMB was added into each well at 30 μL/well and developed at room temperature in dark for 1 min to 5 min. 2 M hydrochloric acid was added at 30 μL/well to stop the reaction. The OD450 absorbance value was read by a microplate reader. Graphpad Prism software was used to fit the curve and calculate the EC₅₀ value (see Table 7).

[3] = target: T1, recombinant human PD-1-his protein; test: as above; remark: listed apart in the source
Experimental: as §1, with “PBS-Milk” for “PBS-Milk was added”, “3-folded” for “3-fold”, “dilution” for “dilutions”, “calculate” for “calculate the”, “values.” for “value (see Table 7).”

[4] = target: T2, recombinant human PD-1-Fc-Biotin (human, UniProt Q15116 25-167, biotin (site not stated)); test: competitive ELISA; PD-L1-mFc coated, 0.5 µg/mL PD-1-Fc-Biotin, streptavidin-HRP
T2 construct: also called antigen protein human PD-1; not shown: Fc
Experimental: (§2) The plates were washed three times with PBST. 5% PBS-Milk was added and incubated at room temperature for 1 hr. All the nanobody-Fc fusion proteins were subject to 3-fold gradient dilutions with an initial concentration of 10 μg/mL, added into each well at 30 μL/well, and incubated at room temperature for 1 hr. […] The well plates were washed with PBST between incubations.

[5] = target: T2, recombinant human PD-1-Fc-Biotin; test: as above; remark: listed apart in the source
Experimental: as §2, with “The” for “The well”

[6] = target: T1, recombinant human PD-1-his protein; test: ELISA (second round of humanization); PD-1-his coated 2 µg/mL, anti-human IgG Fc-HRP
Experimental: (§3) 96-well ELISA plates were coated with 2 μg/mL of recombinant human PD-1-his antigen protein at 30 μL/well at 4° C. overnight. The plates were washed three times with PBST. 5% PBS-Milk was added and incubated at room temperature for 2 h. The plates were washed three times with PBST. All the nanobody-Fc fusion proteins were subject to 3-fold gradient dilutions with an initial concentration of 10 μg/mL, added into each well at 30 μL/well, and incubated at room temperature for 1 hr. The plates were washed three times with PBST. The secondary antibody Goat-Anti-Human-IgG-Fc-HRP (purchased from Sigma) was diluted at 1:8000, added into each well at 30 μL/well, and incubated at room temperature for 50 min. The plates were washed three times with PBST. TMB (purchased from SurModics) was added into each well at 30 μL/well and developed at room temperature in dark for 1 min to 5 min. 2 M hydrochloric acid was added at 30 μL/well to stop the reaction. The OD450 absorbance value was read by a microplate reader.

[7] = target: T1, recombinant human PD-1-his protein; test: ELISA (first round of humanization); PD-1-his coated 2 µg/mL, anti-human IgG Fc-HRP
Experimental: as §3

T1 sequence (Q15116 25-167 limits assumed): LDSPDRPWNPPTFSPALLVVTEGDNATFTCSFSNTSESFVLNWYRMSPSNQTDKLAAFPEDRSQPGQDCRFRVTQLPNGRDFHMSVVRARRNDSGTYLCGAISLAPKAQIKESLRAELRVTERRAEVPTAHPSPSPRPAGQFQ
T2 sequence (Q15116 25-167 limits assumed): as above

- luciferase reporter gene fluorescence signal, Jurkat-NFAT-PD1 effector cells with Hep3B-OS8-PDL1 target cells (EC50) [1]: 0.07 nM
- EC50 [2]: 0.135 nM
- EC50 [3]: 0.149 nM
- IC50 [4]: 0.316 nM
- IC50 [5]: 0.778 nM
B1: MHPD1-A-7 H Fc (Fc fusion)
chain: QVQLVESGGGLVQPGGSLRLSCATSGSRRSIYAMGWFRQAPGKGLEFVAGIGWAYATTYYADSVKGRFTISRDNTKNTLYLQMNSLRAEDTAVYYCAADLDHSGFDYWGQGTLVTVSS
notes: parent of the second round; also called parent MHPD1-A-7 H Fc; not shown: Fc

- EC50 [2]: 0.369 nM
- IC50 [4]: 1.31 nM
- EC50 [6]: 0.55 nM
B2: MHPD1-A-H19 Fc (Fc fusion, not shown: a dimerising Fc or GST; small tags and cut ends)
VHH: B1 chain with T24A, R28D, R29P, A54S, Y55A
notes: Second round of humanization; also called humanized nanobody-Fc fusion protein; parent MHPD1-A-H19 Fc

- EC50 [6]: 4.32 nM
B3: MHPD1-A-H12 Fc (Fc fusion, not shown: a dimerising Fc or GST; small tags and cut ends)
VHH: QVQLVESGGGSVQPGGSLRLSCAASGSDPSIYAMGWFRQAPGKEHEFVAGIGWSAATTYYADSVKGRFTISRDNTKNTLALLMNSLRAEDTAIYYCAADLDHSGFDYWGQGTLVTVSS
notes: Second round of humanization of MHPD1-A; also called humanized nanobody-Fc fusion protein

- EC50 [3]: 0.134 nM
- IC50 [5]: 0.517 nM
B4: MHPD1-A-15 H Fc (Fc fusion)
chain: B1 chain with S27L, A56S
notes: not shown: Fc

- EC50 [6]: 1.29 nM
B5: MHPD1-A-H18 Fc (Fc fusion, not shown: a dimerising Fc or GST; small tags and cut ends)
VHH: B3 VHH with S11L, E44G, H45L, A80Y, L82Q
notes: as for B3

- EC50 [3]: 0.166 nM
- IC50 [5]: 1.08 nM
B6: MHPD1-A-30 H Fc (Fc fusion)
chain: B1 chain with S27V, T58Q, L100I
notes: not shown: Fc

- luciferase reporter gene fluorescence signal, Jurkat-NFAT-PD1 effector cells with Hep3B-OS8-PDL1 target cells (EC50) [1]: 0.078 nM
- EC50 [2]: 0.251 nM
- IC50 [4]: 0.275 nM
B7: MHPD1-A-3 H Fc (Fc fusion, not shown: a dimerising Fc or GST; small tags and cut ends)
VHH: B1 chain with T24A, R28G, A54S

- EC50 [3]: 0.141 nM
- IC50 [5]: 1.54 nM
B8: MHPD1-A-37 H Fc (Fc fusion, not shown: a dimerising Fc or GST; small tags and cut ends)
VHH: B1 chain with S27A, H102R, S103T

- EC50 [3]: 0.171 nM
- IC50 [5]: 1.26 nM
B9: MHPD1-A-49 H Fc (Fc fusion, not shown: a dimerising Fc or GST; small tags and cut ends)
VHH: B1 chain with H102R, S103V

- EC50 [6]: 2.29 nM
B10: MHPD1-A-H16 Fc (Fc fusion, not shown: a dimerising Fc or GST; small tags and cut ends)
VHH: B3 VHH with S11L, T69G, L79V, I93V
notes: as for B3

- EC50 [6]: 1.88 nM
B11: MHPD1-A-H14 Fc (Fc fusion, not shown: a dimerising Fc or GST; small tags and cut ends)
VHH: B3 VHH with T69G, L79V, A80Y, L82Q
notes: as for B3

- EC50 [2]: 1.22 nM
- IC50 [4]: 0.852 nM
B12: MHPD1-A-14 H Fc (Fc fusion, not shown: a dimerising Fc or GST; small tags and cut ends)
VHH: B1 chain with T24A, G26S, S27H, R29P, A54R

- EC50 [3]: 0.146 nM
- IC50 [5]: 0.944 nM
B13: MHPD1-A-45 H Fc (Fc fusion)
chain: B1 chain with G26H, S27L
notes: not shown: Fc

- luciferase reporter gene fluorescence signal, Jurkat-NFAT-PD1 effector cells with Hep3B-OS8-PDL1 target cells (EC50) [1]: 0.09 nM
- EC50 [2]: 0.169 nM
- IC50 [4]: 0.281 nM
B14: MHPD1-A-4 H Fc (Fc fusion, not shown: a dimerising Fc or GST)
chain: B1 chain with T24A, R28V, R29G, Y55F

- EC50 [3]: 0.175 nM
- IC50 [5]: 1.21 nM
B15: MHPD1-A-20 H Fc (Fc fusion, not shown: a dimerising Fc or GST; small tags and cut ends)
VHH: B1 chain with R29K

- EC50 [3]: 0.152 nM
- IC50 [5]: 1.2 nM
B16: MHPD1-A-23 H Fc (Fc fusion)
VHH: B1 chain with S27T
notes: not shown: Fc region

- EC50 [3]: 0.179 nM
- IC50 [5]: 1.61 nM
B17: MHPD1-A-21 H Fc (Fc fusion, not shown: a dimerising Fc or GST; small tags and cut ends)
VHH: B1 chain with T58S

- EC50 [3]: 0.156 nM
- IC50 [5]: 1.72 nM
B18: MHPD1-A-32 H Fc (Fc fusion)
chain: B1 chain with G26K, S27N
notes: not shown: Fc

- EC50 [3]: 0.158 nM
- IC50 [5]: 0.85 nM
B19: MHPD1-A-39 H Fc (Fc fusion)
chain: B1 chain with T58E
notes: not shown: Fc

- EC50 [6]: 2.15 nM
B20: MHPD1-A-H15 Fc (Fc fusion, not shown: a dimerising Fc or GST; small tags and cut ends)
VHH: B3 VHH with A80Y, L82Q
notes: as for B3

- EC50 [6]: 0.64 nM
B21: MHPD1-A-H17 Fc (Fc fusion, not shown: a dimerising Fc or GST; small tags and cut ends)
VHH: B3 VHH with E44G, H45L, A80Y, L82Q
notes: as for B3

- EC50 [7]: 0.24 µg/mL
B22: MHPD1-A-H1 Fc (Fc fusion, not shown: a dimerising Fc or GST; small tags and cut ends)
VHH: B3 VHH with R19T, T69G, L79V, R87K, A88P
notes: First round of humanization of MHPD1-A; also called humanized nanobody-Fc fusion protein

- EC50 [7]: 0.15 µg/mL
B23: MHPD1-A-H9 Fc (Fc fusion, not shown: a dimerising Fc or GST; small tags and cut ends)
VHH: B3 VHH with T69G, L79V
notes: also called humanized nanobody-Fc fusion protein

- EC50 [7]: 0.32 µg/mL
B24: MHPD1-A-H10 Fc (Fc fusion, not shown: a dimerising Fc or GST; small tags and cut ends)
VHH: B3 VHH with R87K, A88P
notes: as for B22

- EC50 [7]: 0.22 µg/mL
B25: MHPD1-A-H2 Fc (Fc fusion, not shown: a dimerising Fc or GST; small tags and cut ends)
VHH: B3 VHH with P14V, T69G, L79V, L113Q
notes: as for B22

- EC50 [7]: 0.2 µg/mL
B26: MHPD1-A-H8 Fc (Fc fusion, not shown: a dimerising Fc or GST; small tags and cut ends)
VHH: B3 VHH with P14V, R19T, E44G, H45L, T69G, L79V, R87K, A88P, L113Q
notes: as for B22

- EC50 [7]: 2.54 µg/mL
B27: MHPD1-A-H7 Fc (Fc fusion, not shown: a dimerising Fc or GST; small tags and cut ends)
VHH: B3 VHH with P14V, R19T, G35M, T69G, T75S, L79V, R87K, A88P, L113Q
notes: as for B22

- EC50 [7]: 0.16 µg/mL
B28: MHPD1-A-H3 Fc (Fc fusion, not shown: a dimerising Fc or GST; small tags and cut ends)
VHH: B3 VHH with P14V, R19T, T69G, R87K, A88P, L113Q
notes: as for B22

- EC50 [7]: 2.91 µg/mL
B29: MHPD1-A-H6 Fc (Fc fusion, not shown: a dimerising Fc or GST; small tags and cut ends)
VHH: B3 VHH with P14V, R19T, G35M, T69G, L79V, R87K, A88P, L113Q
notes: as for B22

- EC50 [7]: 0.35 µg/mL
B30: MHPD1-A-H5 Fc (Fc fusion, not shown: a dimerising Fc or GST; small tags and cut ends)
VHH: B3 VHH with P14V, R19T, T69G, L79V, A80Y, L82Q, R87K, A88P, L113Q
notes: as for B22

- luciferase reporter gene fluorescence signal, Jurkat-NFAT-PD1 effector cells with Hep3B-OS8-PDL1 target cells (EC50) [1]: 0.091 nM
B31: Pembrolizumab (antibody, human IgG4 S228P, kappa, V domains shown)
VH: QVQLVQSGVEVKKPGASVKVSCKASGYTFTNYYMYWVRQAPGQGLEWMGGINPSNGGTNFNEKFKNRVTLTTDSSTTTAYMELKSLQFDDTAVYYCARRDYRFDMGFDYWGQGTTVTVSS
VL: EIVLTQSPATLSLSPGERATLSCRASKGVSTSGYSYLHWYQQKPGQAPRLLIYLASYLESGVPARFSGSGSGTDFTLTISSLEPEDFAVYYCQHSRDLPLTFGGGTKVEIKR
